In series [1] the target is T1, His6-Csa3Sso (WT) (Saccharolobus solfataricus, UniProt Q97Y88).
T1 construct: made in house; host or cells: E. coli BL21(DE3)-pLysS
T1 sequence (Q97Y88 1-237): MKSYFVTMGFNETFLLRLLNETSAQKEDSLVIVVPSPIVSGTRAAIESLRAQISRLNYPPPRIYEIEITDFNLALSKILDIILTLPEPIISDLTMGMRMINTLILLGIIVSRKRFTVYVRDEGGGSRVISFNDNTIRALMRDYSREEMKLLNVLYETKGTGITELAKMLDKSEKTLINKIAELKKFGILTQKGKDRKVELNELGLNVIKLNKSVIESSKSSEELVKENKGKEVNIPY
The experiment in a line: Microscale thermophoresis (MST) binding of cOA ligands to wildtype Csa3Sso. To be noted: MST. The procedure: The ligand-binding specificity of Csa3Sso (WT) and the role of Csa3Sso residues in ligand binding were determined by microscale Thermophoresis (MST). Wildtype or mutant His6-Csa3Sso (200 nM) was fluorescently labeled in 2× binding buffer (10 mM Na/K phosphate, pH 5.8, 10 mM MgCl2, 25 mM NaCl, and 0.05% Tween 20) using 100 nM RED-Tris NTA His-Tag labeling dye (Nanotemper Technologies, Inc) and incubated in the dark at room temperature for 30 min. Two millimolar stocks of synthetic ligands including cA3, cA4, and cA6 (Biolog Life Science Institute) or linear ribonucleotide 5′-rCrArArArA-3′ (Bio-Synthesis Inc) were serially diluted in a 1:1 ratio with nuclease-free water. The labeled proteins were then mixed with ligands in a 1:1 ratio. Only cA4 was used in the MST experiments with the Csa3Sso mutants (2 mM stocks of cA4 were used for F10A, F14A, G96A, and R98A mutants, and 20 μM stocks were used for E122A and E122Q mutants). The mixtures of proteins and ligands were incubated in the dark at room temperature for 30 min. The precipitated material was removed by centrifugation at 6000 rpm for 5 min. The supernatants were then loaded into Monolith NT.115 Series Premium capillaries in triplicate, and the thermophoresis was detected with 40% excitation power and 40% IR-laser power for an on-time of 20 s at 25 °C.
(§1) The binding affinities of oligonucleotides and PCas4a to Csa3Sso (WT and mutants) were analyzed according to the law of mass action in a standard fitting mode of MO.Affinity analysis software (version 2.3).

Series [2] deals with T1, His6-Csa3Sso (WT). As to the kind of experiment: MST binding of PCas4a promoter DNA to Csa3Sso with or without cOAs. To be noted: 50-fold excess of cOA (25 μM). The procedure: The MST experiment and data analysis for ligand-induced changes in Csa3Sso binding affinity with PCas4a was performed as mentioned above except for the following: 1 μM of His6-Csa3Sso (WT) was fluorescently labeled in 2× binding buffer with 40 nM RED-Tris NTA His-Tag labeling dye in the absence or presence of cA4 or cA6. The labeling mixtures were incubated in the dark at room temperature for 30 min. A 50 μM stock of PCas4a was serially diluted in 1:1 ratios with nuclease-free water. The labeled proteins ± ligands were then mixed with diluted PCas4a in a 1:1 ratio and incubated in the dark at room temperature for 30 min. The supernatants obtained after removal of precipitated material were then loaded into Monolith NT.115 Series Premium capillaries in triplicate, and the thermophoresis was detected with 100% excitation power and 60% IR-laser power for an on-time of 20 s at 25 °C.
as §1

Series [3] deals with T2, Csa3Sso WT (Saccharolobus solfataricus P2, UniProt Q97Y88 1-237).
T2 sequence: T1 sequence (Q97Y88 1-237)
As to the kind of experiment: EMSA; no cA4; faint shifted band; MST buffer not given in the material; Cy5 EMSA: 50 nM probe, 0.5-25 uM protein, 5% acrylamide TBE, 4 C; agarose EMSA: 2% TBE, room temperature; crystals: 20 mM. The conditions noted are these: protein: recombinant; tags: N-terminal His6; chain copies: 2; label: 5' Cy5 on top strand; blunt. A general note: A gel shift assay detects complexes by their altered migration in electrophoresis.

Series [4] has as its target T2, Csa3Sso WT. As to the kind of experiment: MST; only nonspecific signal at >=250 uM; MST buffer not given in the material; Cy5 EMSA: 50 nM probe, 0.5-25 uM protein, 5% acrylamide TBE, 4 C; agarose EMSA: 2% TBE, room temperature; crystals: 20 mM. To be noted: protein: recombinant; tags: N-terminal His6; chain copies: 2; cyclic; no ends.
Series [5] deals with the molecule itself. The experiment in a line: SEC; Superdex 200 16/70 gel filtration in buffer F (20 mM Tris-HCl pH 8.0, 50 mM NaCl), against globular standards. In general terms: Size exclusion chromatography separates by hydrodynamic size, large species first.
Series [6] deals with the molecule itself. The experiment in a line: AUC; sedimentation velocity, 20 °C, 40,000 rpm, 10 mM Na/KPO4 pH 5.8, 10 mM NaCl, 25 mM MgCl2; without cA4.
In series [7] the target is T2, Csa3Sso WT. The experiment in a line: MST; no cOA; precipitate removed; MST buffer not given in the material; Cy5 EMSA: 50 nM probe, 0.5-25 uM protein, 5% acrylamide TBE, 4 C; agarose EMSA: 2% TBE, room temperature; crystals: 20 mM. To be noted: protein: recombinant; tags: N-terminal His6; chain copies: 2; blunt.
The target of series [8] is T2, Csa3Sso WT. The experiment in a line: MST; apparent Kd; MST buffer not given in the material; Cy5 EMSA: 50 nM probe, 0.5-25 uM protein, 5% acrylamide TBE, 4 C; agarose EMSA: 2% TBE, room temperature; crystals: 20 mM. To be noted: protein: recombinant; tags: N-terminal His6; chain copies: 2; cyclic; no ends.

Substitutions are numbered along the chain they refer to. Names and notes keep the numbering of the source. “Also recorded” adds a separate entry of the source.

Turning to `Nc1ncnc2c1ncn2[C@@H]1O[C@@H]2COP(=O)(O)O[C@H]3[C@@H](O)[C@H](n4cnc5c(N)ncnc54)O[C@@H]3COP(=O)(O)O[C@H]3[C@@H](O)[C@H](n4cnc5c(N)ncnc54)O[C@@H]3COP(=O)(O)O[C@H]2[C@H]1O` [cA3], the “specific binding to His6-Csa3Sso” value at His6-Csa3Sso (WT) [1] is listed as “lack of Csa3Sso binding”. With `Nc1ncnc2c1ncn2[C@@H]1O[C@@H]2COP(=O)(O)O[C@H]3[C@@H](O)[C@H](n4cnc5c(N)ncnc54)O[C@@H]3COP(=O)(O)O[C@H]3[C@@H](O)[C@H](n4cnc5c(N)ncnc54)O[C@@H]3COP(=O)(O)O[C@H]3[C@@H](O)[C@H](n4cnc5c(N)ncnc54)O[C@@H]3COP(=O)(O)O[C@H]3[C@@H](O)[C@H](n4cnc5c(N)ncnc54)O[C@@H]3COP(=O)(O)O[C@H]3[C@@H](O)[C@H](n4cnc5c(N)ncnc54)O[C@@H]3COP(=O)(O)O[C@H]2[C@H]1O` [cA6], the “effect of excess cOA on PCas4a binding affinity of Csa3Sso” value on His6-Csa3Sso (WT) [2] is listed as “no significant effect; also recorded: did not significantly change”. The “specific binding to His6-Csa3Sso” value at His6-Csa3Sso (WT) [1] is recorded as “only cA4 exhibited a specific low micromolar binding”.

B1: Cy5-PCas4a (dsDNA)
DNA 1: AAAGAATTCCCGAATTTACTAGGGAT
DNA 2: ATCCCTAGTAAATTCGGGAATTCTTT
modifications: 5' amino-modified top strand
As to B1, the binding result in the series with Csa3Sso WT [3] is on record as “binds”. As for AAA (ssRNA, cyclic tri-adenylate) [cA3], in the series with Csa3Sso WT [4], the binding result is listed as “no binding”.

B2: Saccharolobus solfataricus Csa3 (Csa3Sso), N-terminally His6-tagged, wildtype (natural protein, UniProt Q97Y88 1-237, looked up)
chain: T1 sequence (Q97Y88 1-237)
notes: Csa3 (CRISPR Apern 3, a Csa3a homolog) of Saccharolobus solfataricus strain P2, Sso1445, UniProtKB Q97Y88; full-length; the His6-tagged construct has 248 a.a; (MW theor 28.1 kDa); Synthetic gene in pBB75 (or pET21b); also called His6-Csa3Sso; Csa3Sso (WT); source: E. coli BL21(DE3)-pLysS, purified (lysate heated at 65 °C, HisTrap, Mono-Q flow-through, Cibacron Blue, Superdex 200); not shown: …
In general, stoichiometry N refers to a count of units in the complex or per binding partner. For B2, the “stoichiometry N” value in series [5] stood at 2.

B3: Csa3Sso-R98A mutant, N-terminally His6-tagged (natural protein, Saccharolobus solfataricus, UniProt Q97Y88 1-237, looked up)
chain: T1 sequence (Q97Y88 1-237) with R98A
notes: Csa3 of Saccharolobus solfataricus strain P2, Sso1445, UniProtKB Q97Y88; full-length, with R98A; Synthetic gene in pBB75; source: E. coli BL21(DE3)-pLysS, purified (lysate heated at 65 °C, HisTrap, Mono-Q flow-through, Cibacron Blue, Superdex 200); not shown: His6, N-terminal, kept
B3: the “stoichiometry N” value in series [6] came to 2.

B4: PCas4a (dsDNA)
DNA 1: AAAGAATTCCCGAATTTACTAGGGAT
DNA 2: ATCCCTAGTAAATTCGGGAATTCTTT
For B4, the Kd with Csa3Sso WT [7] stood at 1.62 ± 0.17 µM. For the molecule AAAA (ssRNA, cyclic, 3'-5' linked tetra-adenylate (CHEBI:142457)) [cA4], the Kd with Csa3Sso WT [8] turned out to be 5.8 ± 0.03 µM.

For the origin of these results see paper PMC8844856, “Structural basis of cyclic oligoadenylate binding to the transcription factor Csa3 outlines cross talk between type III and type I CRISPR systems” (The Journal of Biological Chemistry, 2022).
